Assay results taken from US20200339680A1 (Alector, published 2020).

Columns and labels:
human TMEM106B [1] = molecular target: T1, human TMEM106B (human, UniProt Q9NUM4 2-274); experiment: FACS A549;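 further: flow cytometry of cells incubated on ice for 1 h with hybridoma supernatant or purified antibody at 10 µg/mL, dead propidium iodide-positive cells gated out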
T1 construct: full-length, transiently expressed on HEK293 cells, or natively expressed on HeLa, U251 and A549 cells (the cell is named under assay); also the source of the Pepscan peptides; also called huTMEM106B; huTMEM
Method: (§1) All cells were cultured in either T75 or T150 flasks. […] The enzyme was quenched by addition of fresh media, and the cells were then distributed into 96-well plates for FACS analysis.
(§2) FACS analysis was performed as follows. Each cell type was aliquoted in 96-well round bottom plates (2×10^5 cells per well), washed once with FACS buffer (PBS+2% FBS+1 mM EDTA), and incubated with 50 μL of hybridoma supernatant or purified antibody (10 μg/ml in FACS buffer) on ice for 1 hour. […] Following this secondary incubation, the cells were again washed 2× with ice-cold FACS buffer and resuspended in a final volume of 50 μL of FACS buffer+0.25 μl/well propidium iodide (Fisher Scientific #4BDB556463). Analysis was performed on a FACSCanto system (BD Biosciences) or iQue (Intellicyt), with sort gates drawn to exclude dead (i.e., propidium iodide positive) cells.

human TMEM106B [2] = molecular target: T1, human TMEM106B; experiment: FACS HeLa
Method: as §1, §2

human TMEM106B [3] = molecular target: T1, human TMEM106B; experiment: FACS U251
Method: as §1, §2

[4] = molecular target: T2, GST Fusion human TMEM106B ECD (Truncated) (human); experiment: SPR array
T2 construct: also called GST-TMEM106B-truncated protein; GST-TMEM106B (truncated)
Method: (§3) Binding kinetic characterization of the purified antibodies was performed by Carterra using a proprietary array SPR instrument (MX-96) as follows. Briefly, antibodies were prepared by diluting to 5 μg/ml in 10 mM Acetate, pH 4.5 (Carterra), at 150 μL/well and then made an additional dilution at 1:10 from there by titrating 11 μL into 100 μL. […] The chip was activated with 18 mM EDC (Sigma Bioxtra) and 4.5 mM S—NHS (Thermo Fisher) diluted in 100 mM MES, pH 5.5, for 7 minutes, and then antibodies were coupled for 10 minutes at 45 μL/minute. After coupling, the chip was returned to the MX-96 and quenched for 7 minutes using 1 M Ethanolamine pH 8.5 (Carterra).
(§4) Printed antibodies were profiled for their ability to bind GST-TMEM106B (truncated) protein (described above). Briefly, GST-TMEM106B (truncated) antigen was diluted to 18 μg/ml (500 nM of 36 kDa fusion protein) by mixing 2.7 μL of 2.0 mg/ml antigen into 298 μL Running buffer (HBS-EP+, Teknova with 1 mg/ml BSA, Sigma), and titrated 50 μl into 200 μl for 5-fold serial dilutions. […] Duplicate measurements for each anti-TMEM106B antibody were taken to ensure reproducibility.

mouse TMEM106B = molecular target: T3, mouse TMEM106B (mouse, UniProt Q80X71 2-275); experiment: FACS Neuro2a;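 further: flow cytometry of antibody binding to cells: hybridoma supernatant or purified antibody at 10 µg/ml, 1 h on ice, secondary detection, propidium iodide–positive dead cells gated out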
T3 construct: transiently expressed on HEK293 cells, or native on mouse Neuro2a cells; also called moTMEM106B; murine TMEM106B

human TMEM106B [5] = molecular target: T1, human TMEM106B; experiment: FACS A549 1 ug/ml
human TMEM106B [6] = molecular target: T1, human TMEM106B; experiment: FACS A549 10 ug/ml
Method: (§5) Purified anti-TMEM106B antibodies were evaluated for their binding affinity to various TMEM106B-expressing cell lines including HEK293 transiently transfected with human/cyno/mouse TMEM106B, as well as HeLa cells and A549 cells. Antibodies tested for this experiment were mouse IgGs purified from hybridoma supernatant. Affinity binding to cells was determined as follows. Briefly, 1×10\hat{ }5 cells were aliquoted per well in 96-well round bottom plates and incubated with 50 μL of purified anti-TMEM106B antibody at various concentrations (10× dilutions starting at 10 μg/ml) in FACS buffer (PBS+2% FBS+1 mM EDTA). […] Sorting was performed on a iQue (Intellicyt), with sort gates drawn to exclude dead (propidium iodide+) cells. Binding data was analyzed using median fluorescent intensity (MFI) and graphed in Prism. Values presented are MFI.

human TMEM106B [7] = molecular target: T1, human TMEM106B; experiment: FACS HEK+huTMEM 10 ug/ml;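 further: flow cytometric binding of purified mouse IgG antibodies to HEK293 cells transiently expressing human TMEM106B, read as median fluorescence intensity on live cells with propidium iodide-positive cells excluded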
Method: as §5

human TMEM106B [8] = molecular target: T1, human TMEM106B; experiment: FACS HEK+huTMEM 0.1 ug/ml;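 further: flow cytometry binding of purified mouse IgG antibodies to HEK293 cells transiently expressing TMEM106B, read as median fluorescence intensity on live cells (propidium iodide negative gating)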
Method: as §5

human TMEM106B [9] = molecular target: T1, human TMEM106B; experiment: FACS HEK+huTMEM 1.0 ug/ml;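 further: binding of purified mouse IgG antibodies to HEK293 cells transiently expressing human TMEM106B, read by flow cytometry as median fluorescence intensity of live, propidium iodide-negative cells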
Method: as §5

human TMEM106B [10] = molecular target: T1, human TMEM106B; experiment: FACS HEK+huTMEM 0.1 ug/ml (2nd column so headed);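 further: flow cytometry binding of purified anti-TMEM106B mouse IgG to HEK293 cells transiently transfected with TMEM106B, read as median fluorescence intensity on live (propidium iodide-negative) cells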
Method: as §5

[11] = molecular target: T2, GST Fusion human TMEM106B ECD …; experiment: SPR array; SPR kinetics, Table 5, first of two listed runs
Method: as §3, §4

[12] = molecular target: T2, GST Fusion human TMEM106B ECD …; experiment: SPR array; SPR kinetics, Table 5, second of two listed runs
Method: as §3
Printed antibodies were profiled for their ability to bind GST-TMEM106B (truncated) protein (described above). Briefly, GST-TMEM106B (truncated) antigen was diluted to 18 μg/ml (500 nM of 36 kDa fusion protein) by mixing 2.7 μL of 2.0 mg/ml antigen into 298 μL Running buffer (HBS-EP+, Teknova with 1 mg/ml BSA, Sigma), and titrated 50 μl into 200 μl for 5-fold serial dilutions. In addition, binding to GST (Pierce) was assayed under the same conditions to determine the extent of any non-specific binding of the anti-TMEM106B antibodies to GST portion of the TMEM106B-GST fusion protein. Duplicate measurements for each anti-TMEM106B antibody were taken to ensure reproducibility.

[13] = molecular target: T2, GST Fusion human TMEM106B ECD …; experiment: SPR array; SPR kinetics, Table 5, first of two listed runs; weak binder
Method: as §3, §4

[14] = molecular target: T2, GST Fusion human TMEM106B ECD …; experiment: SPR array; SPR kinetics, Table 5, first of two listed runs (KD 4.70E-07 M)
Method: as §3, §4

[15] = molecular target: T2, GST Fusion human TMEM106B ECD …; experiment: SPR array; SPR kinetics, Table 5, second of two listed runs (KD 2.90E-08 M)
Method: as §3, §4

B1: TM-16 (antibody, V domains shown)
VH: EVQLQQSGAELVRPGASVKLSCTTSGFNIKDYYMHWVKQRTEQGLEWIGRIDPEDGETKYAPEFQGKATITSDTSSNTAFLQLSSLTSEDTAVYYCASSQPFTYWGQGTLVTVSA
VL: QIVLTQSPAIMSASPGEKLTMTCSASSSLNYMYWYQQKPGSSPRLLIYDTSNLASGVPVRFSGSGSGTSYSLTISRMEAEDGATYYCQQWTSFPPTFGAGTKLELK
B1 was tested, and the MFI (human TMEM106B [1]) was 605 MFI, the MFI (human TMEM106B [2]) was 548 MFI and the MFI (human TMEM106B [3]) was 292 MFI. The Kd [4] was 0.029 µM, the MFI (mouse TMEM106B) was 392 MFI and the MFI (human TMEM106B [5]) was 409 MFI. The MFI (human TMEM106B [6]) was 557 MFI, the MFI (human TMEM106B [7]) was 5980 MFI and the MFI (human TMEM106B [8]) was 680 MFI. For the same binder, the MFI (human TMEM106B [9]) was 2140 MFI, the MFI (human TMEM106B [10]) was 351 MFI and the koff [11] was 0.0031 s⁻¹. For the same binder, the koff [12] was 0.00095 s⁻¹, the Kd [13] was 0.47 µM and the kon [14] was 6500 M⁻¹ s⁻¹. For the same binder, the kon [15] was 33000 M⁻¹ s⁻¹.
